Results taken from publication PMC11257990 (2024).

Molecular target: UBE2L3 (human, UniProt P68036 1-154)
Test: ITC

Sequence of UBE2L3 (P68036 whole entry): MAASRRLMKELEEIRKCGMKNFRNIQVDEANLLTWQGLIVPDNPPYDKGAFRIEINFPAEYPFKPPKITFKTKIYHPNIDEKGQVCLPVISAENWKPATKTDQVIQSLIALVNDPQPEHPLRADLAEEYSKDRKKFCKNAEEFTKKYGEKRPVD

B1: CUL9^ARIH-RBR (domain or fragment)
chain: SPEAVATLASLQLPAGRTMSPQEVEGLMKQTVRQVQETLNLEPDVAQHLLAHSHWGAEQLLQSYSEDPEPLLLAAGLCVHQAQAVPVRPDHCPVCVSPLGCDDDLPSLCCMHYCCKSCWNEYLTTRIEQNLVLNCTCPIADCPAQPTGAFIRAIVSSPEVISKYEKALLRGYVESCSNLTWCTNPQGCDRILCRQGLGCGTTCSKCGWASCFNCSFPEAHYPASCGHMSQWVDDGGYYDGMSVEAQSKHLAKLISKRCPSCQAPIEKNEGCLHMTCAKCNHGFCWRCLKSWKPNHKDYYNCSAMVSKAARQEKRFQDYNERCTFHHQAREFAVNLRNRVSAIHEVPPPRSFTFLNDACQGLEQARKVLAYACVYSFYSQDAEYMDVVEQQTENLELHTNALQILLEETLLRCRDLASSLRLLRADCLSTGMELLRRIQERLLAILQHSAQDFRVGLQSPSVEAWEAKGPNMPGSQPQASSGPEAEEEEEDDEDDVPEWQQDEFDEELDNDSFSYDESENLDQETFFFGDEEEDEDEAYD
Kd: 12 µM
